{
  "source": "the supplement of paper PMC9112550",
  "about": "“Optimization of the antimicrobial peptide Bac7 by deep mutational scanning” (BMC Biology, 2022);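 also: peptides expressed intracellularly from a pBAD plasmid library in pooled LB shake-flask culture, induced with 0.3% L-arabinose, DNA abundance read by NGS, three biological replicates, DESeq2 with apeglm shrinkage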",
  "data": [
    {"tested_on": "Escherichia coli TOP10", "experiment": "shrunken log2 fold change of peptide-encoding DNA abundance (4.5 h post-induction vs induction); higher = less antimicrobial activity (less host growth inhibition)", "settings": "time post-induction: 4.5 h; library: site-saturation at positions 5, 18, 19, 20", "values": [
      {"sequence": "RRIRGRPPRLPRPRPRPGDCPRP", "shrunken log2 fold change": 0.824},
      {"sequence": "RRIRIRPPRLPRPRPRPHKTPRP", "shrunken log2 fold change": -0.000475},
      {"sequence": "RRIRQRPPRLPRPRPRPMATPRP", "shrunken log2 fold change": 0.0329},
      {"sequence": "RRIRARPPRLPRPRPRPSYGPRP", "shrunken log2 fold change": -0.282},
      {"sequence": "RRIRFRPPRLPRPRPRPVPGPRP", "shrunken log2 fold change": 0.1},
      {"sequence": "RRIRRRPPRLPRPRPRPNCLPRP", "shrunken log2 fold change": 0.312},
      {"sequence": "RRIRIRPPRLPRPRPRPVMYPRP", "shrunken log2 fold change": -0.052},
      {"sequence": "RRIRHRPPRLPRPRPRPTDGPRP", "shrunken log2 fold change": -0.0791},
      {"sequence": "RRIRYRPPRLPRPRPRPELPPRP", "shrunken log2 fold change": 0.0248},
      {"sequence": "RRIRKRPPRLPRPRPRPTMAPRP", "shrunken log2 fold change": 0.638},
      {"sequence": "RRIRERPPRLPRPRPRPWANPRP", "shrunken log2 fold change": -0.0497},
      {"sequence": "RRIRPRPPRLPRPRPRPKGYPRP", "shrunken log2 fold change": -0.13},
      {"sequence": "RRIRVRPPRLPRPRPRPTIKPRP", "shrunken log2 fold change": -0.226},
      {"sequence": "RRIRCRPPRLPRPRPRPWWNPRP", "shrunken log2 fold change": -0.752},
      {"sequence": "RRIRMRPPRLPRPRPRPNHFPRP", "shrunken log2 fold change": -0.436},
      {"sequence": "RRIRTRPPRLPRPRPRPWQDPRP", "shrunken log2 fold change": -0.326},
      {"sequence": "RRIRRRPPRLPRPRPRPQRDPRP", "shrunken log2 fold change": 0.179},
      {"sequence": "RRIRSRPPRLPRPRPRPQQGPRP", "shrunken log2 fold change": 0.162},
      {"sequence": "RRIRNRPPRLPRPRPRPDIWPRP", "shrunken log2 fold change": -0.394},
      {"sequence": "RRIRQRPPRLPRPRPRPRLLPRP", "shrunken log2 fold change": 0.0504},
      {"sequence": "RRIRYRPPRLPRPRPRPDDTPRP", "shrunken log2 fold change": -0.876},
      {"sequence": "RRIRQRPPRLPRPRPRPTTDPRP", "shrunken log2 fold change": -0.0492},
      {"sequence": "RRIRGRPPRLPRPRPRPKNVPRP", "shrunken log2 fold change": 0.0302},
      {"sequence": "RRIRSRPPRLPRPRPRPIKDPRP", "shrunken log2 fold change": -0.224},
      {"sequence": "RRIRGRPPRLPRPRPRPTTVPRP", "shrunken log2 fold change": 0.368},
      {"sequence": "RRIRIRPPRLPRPRPRPATTPRP", "shrunken log2 fold change": -0.145},
      {"sequence": "RRIRLRPPRLPRPRPRPVDPPRP", "shrunken log2 fold change": -0.0136},
      {"sequence": "RRIRRRPPRLPRPRPRPRMHPRP", "shrunken log2 fold change": 0.516},
      {"sequence": "RRIRLRPPRLPRPRPRPCWAPRP", "shrunken log2 fold change": -0.0392},
      {"sequence": "RRIRQRPPRLPRPRPRPLVYPRP", "shrunken log2 fold change": -0.737},
      {"sequence": "RRIRCRPPRLPRPRPRPKLEPRP", "shrunken log2 fold change": -0.125},
      {"sequence": "RRIRERPPRLPRPRPRPSQHPRP", "shrunken log2 fold change": -0.49},
      {"sequence": "RRIRQRPPRLPRPRPRPQFCPRP", "shrunken log2 fold change": -0.142},
      {"sequence": "RRIRCRPPRLPRPRPRPHCFPRP", "shrunken log2 fold change": -0.429},
      {"sequence": "RRIRGRPPRLPRPRPRPHSWPRP", "shrunken log2 fold change": 0.417},
      {"sequence": "RRIRPRPPRLPRPRPRPYHLPRP", "shrunken log2 fold change": -1.07},
      {"sequence": "RRIRGRPPRLPRPRPRPCIWPRP", "shrunken log2 fold change": 0.208},
      {"sequence": "RRIRCRPPRLPRPRPRPAIMPRP", "shrunken log2 fold change": -0.0676},
      {"sequence": "RRIRDRPPRLPRPRPRPLHVPRP", "shrunken log2 fold change": -0.133},
      {"sequence": "RRIRWRPPRLPRPRPRPCQLPRP", "shrunken log2 fold change": -0.0812},
      {"sequence": "RRIRIRPPRLPRPRPRPYERPRP", "shrunken log2 fold change": -0.023},
      {"sequence": "RRIRWRPPRLPRPRPRPLSHPRP", "shrunken log2 fold change": 0.000856},
      {"sequence": "RRIRDRPPRLPRPRPRPGIVPRP", "shrunken log2 fold change": 0.0969},
      {"sequence": "RRIRYRPPRLPRPRPRPVWKPRP", "shrunken log2 fold change": 0.0654},
      {"sequence": "RRIRIRPPRLPRPRPRPRIIPRP", "shrunken log2 fold change": -0.199},
      {"sequence": "RRIRTRPPRLPRPRPRPFADPRP", "shrunken log2 fold change": -0.112},
      {"sequence": "RRIRQRPPRLPRPRPRPQWPPRP", "shrunken log2 fold change": 0.239},
      {"sequence": "RRIRSRPPRLPRPRPRPFRSPRP", "shrunken log2 fold change": 0.00887},
      {"sequence": "RRIRPRPPRLPRPRPRPRMQPRP", "shrunken log2 fold change": 1.48},
      {"sequence": "RRIRMRPPRLPRPRPRPPYYPRP", "shrunken log2 fold change": -0.243},
      {"sequence": "RRIRHRPPRLPRPRPRPPREPRP", "shrunken log2 fold change": 0.204},
      {"sequence": "RRIRHRPPRLPRPRPRPQCCPRP", "shrunken log2 fold change": -0.00176},
      {"sequence": "RRIRVRPPRLPRPRPRPNSHPRP", "shrunken log2 fold change": -0.402},
      {"sequence": "RRIRWRPPRLPRPRPRPSDFPRP", "shrunken log2 fold change": 0.0215},
      {"sequence": "RRIRQRPPRLPRPRPRPWPPPRP", "shrunken log2 fold change": 0.16},
      {"sequence": "RRIRVRPPRLPRPRPRPHYFPRP", "shrunken log2 fold change": -0.00578},
      {"sequence": "RRIRLRPPRLPRPRPRPCWNPRP", "shrunken log2 fold change": -0.291},
      {"sequence": "RRIRIRPPRLPRPRPRPFKYPRP", "shrunken log2 fold change": -0.0899},
      {"sequence": "RRIRIRPPRLPRPRPRPHNLPRP", "shrunken log2 fold change": -0.334},
      {"sequence": "RRIRKRPPRLPRPRPRPTGNPRP", "shrunken log2 fold change": 0.563},
      {"sequence": "RRIRDRPPRLPRPRPRPQICPRP", "shrunken log2 fold change": -0.0334},
      {"sequence": "RRIRPRPPRLPRPRPRPGFPPRP", "shrunken log2 fold change": 0.355},
      {"sequence": "RRIRKRPPRLPRPRPRPHNEPRP", "shrunken log2 fold change": 0.323},
      {"sequence": "RRIRDRPPRLPRPRPRPMYKPRP", "shrunken log2 fold change": -0.363},
      {"sequence": "RRIRKRPPRLPRPRPRPKGFPRP", "shrunken log2 fold change": 0.0233},
      {"sequence": "RRIRCRPPRLPRPRPRPTHPPRP", "shrunken log2 fold change": 0.164},
      {"sequence": "RRIRRRPPRLPRPRPRPQPHPRP", "shrunken log2 fold change": 0.396},
      {"sequence": "RRIRWRPPRLPRPRPRPLMPPRP", "shrunken log2 fold change": 0.486},
      {"sequence": "RRIRIRPPRLPRPRPRPVPQPRP", "shrunken log2 fold change": 0.224},
      {"sequence": "RRIRGRPPRLPRPRPRPWHDPRP", "shrunken log2 fold change": -0.178},
      {"sequence": "RRIRQRPPRLPRPRPRPKQSPRP", "shrunken log2 fold change": -0.0143},
      {"sequence": "RRIRSRPPRLPRPRPRPFFMPRP", "shrunken log2 fold change": -0.288},
      {"sequence": "RRIRMRPPRLPRPRPRPCGRPRP", "shrunken log2 fold change": 1.09},
      {"sequence": "RRIRMRPPRLPRPRPRPIFDPRP", "shrunken log2 fold change": 0.00763},
      {"sequence": "RRIRSRPPRLPRPRPRPRREPRP", "shrunken log2 fold change": 0.416}
    ]}
  ]
}
